Source: patent US20160206715A1

Target: T1, rMuIL15Ra (murine IL-15 receptor R&D Systems) (murine), Q60819
T1 chain: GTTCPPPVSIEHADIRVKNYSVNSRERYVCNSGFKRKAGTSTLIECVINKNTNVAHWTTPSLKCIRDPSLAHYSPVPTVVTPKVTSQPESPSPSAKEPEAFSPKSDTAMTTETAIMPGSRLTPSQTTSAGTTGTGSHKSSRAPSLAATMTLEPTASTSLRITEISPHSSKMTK
Test: BLI (ForteBio), biotinylated rMuIL15Ra on SA biosensors, rMuIL15 in solution, 1:1 fit
Settings: remark: other sources report otherwise

B1: rMuIL15 (R&D Systems), P48346 49-162 (ligand, murine, UniProt P48346 49-162, looked up)
chain: NWIDVRYDLEKIESLIQSIHIDTTLYTDSDFHPSCKVTAMNCFLLELQVILHEYSNMTLNETVRNVLYLANSTLSSNKNVAESGCKECEELEEKTFTEFLQSFIRIVQMFINTS
modifications: here or on the partner: biotinylated with EZ-Link NHS-LC-Biotin (sites not given)
B1 was tested, and the Kd was 5.57 nM.
